T1: Peptide 8: Biotin-AEAAAKEAAAKEAAAKEAAAKAAA-Tyr-acid (N-terminal biotin; C-terminal acid)
T1 construct: control peptide without PC
T1 peptide: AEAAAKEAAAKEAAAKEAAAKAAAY

T2: Peptide 4: Biotin-AGGGGSGGGGSGGGGSAAA-Tyr-acid (N-terminal biotin; C-terminal acid)
T2 construct: control peptide without PC
T2 peptide: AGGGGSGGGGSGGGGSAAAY

T3: Peptide 8: Biotin-AEAAAKEAAAKEAAAKEAAAKAAA-Tyr-acid (N-terminal biotin; C-terminal acid)
T3 construct: Control peptide without PC
T3 peptide: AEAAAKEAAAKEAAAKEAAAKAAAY

T4: Peptide 4: Biotin-AGGGGSGGGGSGGGGSAAA-Tyr-acid (N-terminal biotin; C-terminal acid)
T4 construct: Control peptide without PC
T4 peptide: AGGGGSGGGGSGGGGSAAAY


Key:
Test in all cases: scFv ELISA
[1] = target: Peptide 1: Biotin-…-[Tyr(PC)]-acid
[2] = target: BSA (UniProt P02769)
Chain of BSA (P02769 25-607 limits assumed): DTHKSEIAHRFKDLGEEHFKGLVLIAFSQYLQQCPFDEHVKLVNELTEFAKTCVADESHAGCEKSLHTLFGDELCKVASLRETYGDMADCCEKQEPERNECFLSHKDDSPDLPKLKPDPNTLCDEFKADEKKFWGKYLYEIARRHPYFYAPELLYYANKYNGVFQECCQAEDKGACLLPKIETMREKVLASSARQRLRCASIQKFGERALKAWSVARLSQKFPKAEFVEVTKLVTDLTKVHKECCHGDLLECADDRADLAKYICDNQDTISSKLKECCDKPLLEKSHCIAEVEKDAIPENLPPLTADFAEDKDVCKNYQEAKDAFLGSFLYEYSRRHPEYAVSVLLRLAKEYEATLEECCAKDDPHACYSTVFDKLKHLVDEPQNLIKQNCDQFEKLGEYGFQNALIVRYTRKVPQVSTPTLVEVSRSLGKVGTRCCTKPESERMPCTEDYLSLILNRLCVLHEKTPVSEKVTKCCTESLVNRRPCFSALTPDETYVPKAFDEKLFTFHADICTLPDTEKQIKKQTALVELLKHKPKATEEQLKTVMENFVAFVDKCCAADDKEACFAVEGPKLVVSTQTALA

[3] = target: Peptide 5: Biotin-…-[Tyr(PC)]-acid
[4] = target: T1, Peptide 8: …
In short: (§1)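 Bound scFv was read as OD450 after HRP–anti-V5 detection, TMB development and HCl stop. PPE with BSA was incubated 1 h at RT on BSA-blocked wells coated overnight at 4° C. with peptide, or on streptavidin wells loaded 1 h with biotinylated PC-peptides at 1 μg/mL.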

[5] = target: T2, Peptide 4: …
In short: as §1

[6] = target: T3, Peptide 8: …
In short: as §1

[7] = target: T4, Peptide 4: …
In short: as §1

Binder	OD450 [1] [OD450]	OD450 [2] [OD450]	OD450 [3] [OD450]	OD450 [4] [OD450]	OD450 [5] [OD450]	OD450 [6] [OD450]	OD450 [7] [OD450]
PcOxP_DB03_E07 (scFv, V domains shown, scFv in periplasmic extract) VH: EVQLLESGGGLVQPGGSLRLSCAASGFTFSDNYMEWVRQAPGKGLEWVAASRNKANDYTNEYADSVKGRFTISRDNSKNTLYLQMNSLRAEDTAVYYCARDYYGSSYWYFDVWGQGTLVTVSS VL: DIQMTQSPSSLSASVGDRVTITCTASESLYSSKHKVHYLAWYQQKPGKAPKLLIYGASNRYIGVPSRFSGSGSGTDFTLTISSLQPEDFATYYCAQFYSYPLTFGGGTKVEIK	0.78	0.08	0.86	0.05	0.05		
PcOxP_DB04_G05 (scFv, V domains shown, scFv in periplasmic extract) VH: EVQLLESGGGLVQPGGSLRLSCAASGFTFSDFYMEWVRQAPGKGLEWVAASRNKANDYTTEYADSVKGRFTISRDNSKNTLYLQMNSLRAEDTAVYYCARDFYGSSYWYFDVWGQGTLVTVSS VL: DIVMTQSPDSLAVSLGERATINCTASESLYSSKHKVHYLAWYQQKPGQPPKLLIYGASNRYIGVPDRFSGSGSGTDFTLTISSLQAEDVAVYYCAQFYSYPLTFGGGTKVEIK	1.2	0.07	1.67			0.05	0.05
PcOxP_DB01_H08 (scFv, V domains shown, scFv in periplasmic extract) VH: EVQLLESGGGLVQPGGSLRLSCAASGFTHSDFYMEWVRQAPGKGLEWVAASRNKANDYTTEYADSVKGRFTISRDNSKNTLYLQMNSLRAEDTAVYYCARDYYGSSYWYFDVWGQGTLVTVSS VL: DIQMTQSPSSLSASVGDRVTITCRASESISSSKHKHYLAWYQQKPGKAPKLLIYGASNRYIGVPSRFSGSGSGTDFTLTISSLQPEDFATYYCAQFYVYPLTFGGGTKVEIK	0.56	0.09	0.85	0.06	0.06		
PcOxP_DB02_E12 (scFv, V domains shown, scFv in periplasmic extract) VH: EVQLLESGGGLVQPGGSLRLSCAASGFGFSDFYMEWVRQAPGKGLEWVAASRNKANDYTTEYADSVKGRFTISRDNSKNTLYLQMNSLRAEDTAVYYCARDYYGSSYWYFDVWGQGTLVTVSS VL: DIVMTQSPDSLAVSLGERATINCTASESLYSSKHKVHYLAWYQQKPGQPPKLLIYGASNRYIGVPDRFSGSGSGTDFTLTISSLQAEDVAVYYCAEFYSYPLTFGGGTKVEIK	0.26	0.06	0.58			0.06	0.05
PcOxP_DB03_E08 (scFv, V domains shown, scFv in periplasmic extract) VH: EVQLLESGGGLVQPGGSLRLSCAASGFTFSSFYMEWVRQAPGKGLEWVAASRNAANDYTTEYADSVKGRFTISRDNSKNTLYLQMNSLRAEDTAVYYCARDYYGSSYWYFDLWGQGTLVTVSS VL: DIQMTQSPSSLSASVGDRVTITCTASESLYSSKHKVHYLAWYQQKPGKAPKLLIYGASNRYIGVPSRFSGSGSGTDFTLTISSLQPEDFATYYCAQFYFYPLTFGGGTKVEIK	0.87	0.09	0.92	0.05	0.05		
PcOxP_DB02_F04 (scFv, V domains shown, scFv in periplasmic extract) VH: EVQLLESGGGLVQPGGSLRLSCAASGFTGSDFYMEWVRQAPGKGLEWVAASRNSGNSYTTAYADSVKGRFTISRDNSKNTLYLQMNSLRAEDTAVYYCARDYFGSSYWYFDVWGQGTLVTVSS VL: DIVMTQSPDSLAVSLGERATINCTASESLYSSKHKVHYLAWYQQKPGQPPKLLIYGASNRYIGVPDRFSGSGSGTDFTLTISSLQAEDVAVYYCAQFYSYPLTFGGGTKVEIK	0.47	0.09	0.74			0.05	0.04
PcOxP_DB03_F01 (scFv, V domains shown, scFv in periplasmic extract) VH: EVQLLESGGGLVQPGGSLRLSCAASGFTFNDFYMEWVRQAPGKGLEWVAASRNKANDYTTEYADSVKGRFTISRDNSKNTLYLQMNSLRAEDTAVYYCARDYYGSSYWYFDVWGQGTLVTVSS VL: DIQMTQSPSSLSASVGDRVTITCEASESLYSSKHKVHYLAWYQQKPGKAPKLLIYGASNRLIGVPSRFSGSGSGTDFTLTISSLQPEDFATYYCAQFYEYPLTFGGGTKVEIK	0.58	0.09	0.8	0.05	0.05		
PcOxP_DB03_E09 (scFv, V domains shown, scFv in periplasmic extract) VH: EVQLLESGGGLVQPGGSLRLSCAASGFTASDFYMEWVRQAPGKGLEWVAASRNKANDQTTEYADSVKGRFTISRDNSKNTLYLQMNSLRAEDTAVYYCARDYYGSSYWYFDSWGQGTLVTVSS VL: DIQMTQSPSSLSASVGDRVTITCTASESLYSSKHKVHYLAWYQQKPGKAPKLLIYGASNRQSGVPSRFSGSGSGTDFTLTISSLQPEDFATYYCAQFYSYPLTFGGGTKVEIK	0.39	0.08	0.72	0.05	0.05		

Now from value to binder:

OD450 [1] [OD450]	OD450 [2] [OD450]	OD450 [3] [OD450]	OD450 [4] [OD450]	OD450 [5] [OD450]	OD450 [6] [OD450]	OD450 [7] [OD450]	Binder
2.18	0.1	1.67	0.05	0.06			PcOxP_DB03_G07 (scFv, V domains shown, scFv in periplasmic extract) VH: EVQLLESGGGLVQPGGSLRLSCAASGFTFSDHYMEWVRQAPGKGLEWVAASRNKANDYTTEYADSVKGRFTISRDNSKNTLYLQMNSLRAEDTAVYYCARDYYGQSYWYFDVWGQGTLVTVSS VL: DIQMTQSPSSLSASVGDRVTITCTASESLYSSKHKVHYLAWYQQKPGKAPKLLIYGASNRYIGVPSRFSGSGSGTDFTLTISSLQPEDFATYYCAQFYSYPLTFGGGTKVEIK
1.57	0.08	1.8	0.08	0.05			PcOxP_DB03_G03 (scFv, V domains shown, scFv in periplasmic extract) VH: EVQLLESGGGLVQPGGSLRLSCAASGFTSSDFYMEWVRQAPGKGLEWVAASRNKANDYTTEYADSVKGRFTISRDNSKNTLYLQMNSLRAEDTAVYYCARDYYGSSYWYFDVWGQGTLVTVSS VL: DIQMTQSPSSLSASVGDRVTITCTASQSISSSKHKVHYLAWYQQKPGKAPKLLIYGASNHYIGVPSRFSGSGSGTDFTLTISSLQPEDFATYYCAQFYSYPLTFGGGTKVEIK
2.48	0.1	2.01	0.06	0.06			PcOxP_DB03_G06 (scFv, V domains shown, scFv in periplasmic extract) VH: EVQLLESGGGLVQPGGSLRLSCAASGFTFSDFYMEWVRQAPGKGLEWVAASRNKANDYTTEYADSVKGRFTISRDNSKNTLYLQMNSLRAEDTAVYYCARDYYGSSYWYFDVWGQGTLVTVSS VL: DIQMTQSPSSLSASVGDRVTITCTASESLYSSKHKVHYLAWYQQKPGKAPKLLIYGASNRYIGVPSRFSGSGSGTDFTLTISSLQPEDFATYYCAQFYEYPLTFGGGTKVEIK
0.65	0.09	0.85	0.07	0.05			PcOxP_DB03_F10 (scFv, V domains shown, scFv in periplasmic extract) VH: EVQLLESGGGLVQPGGSLRLSCAASGFTFSDHYMEWVRQAPGKGLEWVAASRNSGNSYTTEYADSVKGRFTISRDNSKNTLYLQMNSLRAEDTAVYYCARDYYGSSYWYFDVWGQGTLVTVSS VL: DIQMTQSPSSLSASVGDRVTITCTASESLYSSKHSVHYLAWYQQKPGKAPKLLIYGASNRFIGVPSRFSGSGSGTDFTLTISSLQPEDFATYYCAQFYSYPLTFGGGTKVEIK
1.33	0.07	1.59	0.05	0.04			PcOxP_DB03_G02 (scFv, V domains shown, scFv in periplasmic extract) VH: EVQLLESGGGLVQPGGSLRLSCAASGFTFSDGYIEWVRQAPGKGLEWVAASRNKANDYTTEYADSVKGRFTISRDNSKNTLYLQMNSLRAEDTAVYYCARDYYGSSYWYFDVWGQGTLVTVSS VL: DIQMTQSPSSLSASVGDRVTITCTASEELYSSKHKVHYLAWYQQKPGKAPKLLIYGASNRYIGVPSRFSGSGSGTDFTLTISSLQPEDFATYYCAQFYSYPLTFGGGTKVEIK

— patent publication US20250320312A1 (OXITOPE PHARMA B V, published 2025)
